Source: the Human Domainome abundance scans (Beltran et al. 2025)
± gives the uncertainty stated by the source.

B1: POU domain, class 2, transcription factor 1, residues 285 to 354; numbered along this chain, P14859 (parent)
chain: LEELEQFAKTFKQRRIKLGFTQGDVGLAMGKLYGNDFSQTTISRFEALNLSFKNMCKLKPLLEKWLNDAE

Variants of: B1
Assay: abundance fitness (aPCA) (normalised: wild type 0, dead -1); higher = more abundant; growth selection in yeast, the domain comes from the species named
Settings: Homo sapiens

Row | Variant | abundance fitness
1 | Q13V | -0.014 ± 0.023
2 | Q13K | 0.042 ± 0.056
3 | Q13S | -0.005 ± 0.027
4 | Q13M | -0.024 ± 0.022
5 | Q13L | -0.005 ± 0.017
6 | Q13C | -0.235 ± 0.089
7 | Q13W | -0.188 ± 0.035
8 | Q13T | 0.023 ± 0.037
9 | Q13A | -0.02 ± 0.093
10 | Q13E | -0.01 ± 0.057
11 | Q13R | -0.061 ± 0.042
12 | Q13Y | 0.011 ± 0.1
13 | Q13F | -0.054 ± 0.05
14 | Q13N | -0.049 ± 0.14
15 | Q13P | -0.202 ± 0.065
16 | Q13H | 0.015 ± 0.11
17 | Q13I | -0.121 ± 0.07
18 | A8V | 0.01 ± 0.028
19 | A8W | -0.528 ± 0.041
20 | A8S | -0.082 ± 0.03
21 | A8T | 0.004 ± 0.033
22 | F11A | -0.166 ± 0.029
23 | F11I | -0.402 ± 0.048
24 | F11M | -0.166 ± 0.037

Row | Variant | abundance fitness
25 | F11K | -1.09 ± 0.15
26 | F11S | -0.206 ± 0.035
27 | F11L | -0.147 ± 0.023
28 | F11E | -1.12 ± 0.12
29 | F11D | -1.19 ± 0.48
30 | F11R | -0.955 ± 0.042
31 | F11C | -0.11 ± 0.045
32 | F11V | -0.239 ± 0.024
33 | F11Q | -1.11 ± 0.16
34 | F11Y | -0.238 ± 0.12
35 | F11W | -0.105 ± 0.027
36 | F11G | -0.848 ± 0.034
37 | F11N | -1.09 ± 0.093
38 | F11P | -1.04 ± 0.1
39 | I16C | -0.325 ± 0.12
40 | I16R | -0.169 ± 0.049
41 | I16K | -0.021 ± 0.027
42 | I16T | -0.03 ± 0.049
43 | I16S | -0.018 ± 0.042
44 | I16Y | -0.117 ± 0.031
45 | I16P | -1.07 ± 0.17
46 | I16M | 0.004 ± 0.021
47 | I16N | -0.105 ± 0.047
48 | I16V | -0.017 ± 0.047

Row | Variant | abundance fitness
49 | I16W | -0.269 ± 0.076
50 | I16G | -0.207 ± 0.11
51 | I16D | -0.2 ± 0.3
52 | I16F | -0.131 ± 0.025
53 | I16A | -0.039 ± 0.078
54 | I16L | -0.007 ± 0.017
55 | I16E | 0.073 ± 0.082
56 | R15I | -1.1 ± 0.48
57 | R15F | -0.533 ± 0.077
58 | R15P | -1.09 ± 0.15
59 | R15S | -0.974 ± 0.054
60 | R15L | -0.826 ± 0.025
61 | R15E | -0.971 ± 0.091
62 | R15N | -0.902 ± 0.38
63 | R15V | -0.815 ± 0.042
64 | R15T | -1.03 ± 0.1
65 | R15G | -1.03 ± 0.05
66 | R15W | -0.953 ± 0.053
67 | R15Y | -0.387 ± 0.12
68 | R15K | -1.09 ± 0.11
69 | R15A | -0.835 ± 0.063
70 | R15C | -0.655 ± 0.086
71 | R15H | -0.725 ± 0.14
72 | G19A | -0.391 ± 0.16

Row | Variant | abundance fitness
73 | G19S | -0.288 ± 0.11
74 | G19H | -0.564 ± 0.36
75 | G19D | -0.314 ± 0.22
76 | G19V | -0.214 ± 0.44
77 | G19M | -0.471 ± 0.26
78 | T10F | 0.023 ± 0.039
79 | T10D | -0.08 ± 0.059
80 | T10K | -0.014 ± 0.037
81 | T10E | 0.04 ± 0.041
82 | T10H | 0.019 ± 0.063
83 | T10S | -0.027 ± 0.025
84 | T10R | -0.038 ± 0.026
85 | T10I | 0.01 ± 0.061
86 | T10Q | -0.012 ± 0.04
87 | T10G | -0.047 ± 0.026
88 | T10N | 0.004 ± 0.065
89 | T10C | -0.041 ± 0.036
90 | T10M | -0.052 ± 0.029
91 | T10P | -0.945 ± 0.073
92 | T10V | -0.059 ± 0.02
93 | T10Y | -0.063 ± 0.06
94 | T10L | -0.013 ± 0.019
95 | F20K | -0.073 ± 0.046
96 | F20D | -0.706 ± 0.044

Row | Variant | abundance fitness
97 | F20H | -0.045 ± 0.028
98 | F20A | -0.035 ± 0.021
99 | F20E | -0.372 ± 0.031
100 | F20C | -0.016 ± 0.065
101 | L18D | -0.601 ± 0.099
102 | L18T | -0.386 ± 0.073
103 | L18Y | -0.041 ± 0.057
104 | L18C | -0.1 ± 0.066
105 | L18W | -0.237 ± 0.1
106 | L18P | -0.955 ± 0.17
107 | L18V | -0.192 ± 0.034
108 | L18E | -0.326 ± 0.078
109 | L18S | -0.094 ± 0.047
110 | L18I | -0.261 ± 0.1
111 | L18M | -0.067 ± 0.083
112 | L18N | -0.408 ± 0.12
113 | L18A | -0.046 ± 0.04
114 | L18G | -0.312 ± 0.061
115 | L18H | -0.277 ± 0.12
116 | L18R | -0.143 ± 0.072
117 | K17D | 0.001 ± 0.082
118 | K17G | -0.027 ± 0.065
119 | K17W | -0.037 ± 0.039
120 | K17I | -0.1 ± 0.059

Row | Variant | abundance fitness
121 | K17L | -0.016 ± 0.019
122 | K17Q | -0.023 ± 0.033
123 | K17N | 0.076 ± 0.11
124 | K17M | -0.007 ± 0.024
125 | K17R | -0.166 ± 0.063
126 | K17V | -0.06 ± 0.024
127 | K17P | -0.966 ± 0.081
128 | K17E | 0.01 ± 0.039
129 | K17C | -0.046 ± 0.045
130 | K17Y | -0.07 ± 0.04
131 | K17T | -0.029 ± 0.028
132 | K17S | -0.003 ± 0.019
133 | K12L | -0.156 ± 0.02
134 | K12N | -0.107 ± 0.038
135 | K12A | 0.006 ± 0.026
136 | K12I | -0.007 ± 0.04
137 | K12P | -0.085 ± 0.049
138 | K12G | -0.146 ± 0.027
139 | K12Y | -0.157 ± 0.033
140 | K12V | -0.05 ± 0.024
141 | K12C | -0.041 ± 0.028
142 | K12W | -0.364 ± 0.033
143 | K12H | -0.084 ± 0.039
144 | K12T | -0.012 ± 0.03

Row | Variant | abundance fitness
145 | K12S | -0.044 ± 0.024
146 | K12R | 0.015 ± 0.033
147 | K12F | -0.307 ± 0.032
148 | K12E | -0.046 ± 0.036
149 | K12M | -0.062 ± 0.032
150 | R14L | -0.105 ± 0.034
151 | R14Y | -0.384 ± 0.14
152 | R14T | -0.024 ± 0.059
153 | R14G | -0.067 ± 0.046
154 | R14S | -0.052 ± 0.04
155 | R14F | -0.32 ± 0.068
156 | R14V | -0.004 ± 0.039
157 | R14N | -0.29 ± 0.11
158 | R14H | -0.156 ± 0.066
159 | R14M | -0.089 ± 0.057
160 | R14W | -0.296 ± 0.35
161 | R14Q | -0.1 ± 0.075
162 | R14E | 0.028 ± 0.055
163 | R14A | -0.048 ± 0.036
164 | R14K | 0.004 ± 0.089
165 | R14C | -0.233 ± 0.12
166 | R14P | -1.05 ± 0.14
167 | K9R | 0.011 ± 0.015
